{"source": "patent US20210388087A1", "about": "(Chugai, published 2021)", "binders": {"B1": {"name": "CE115HA000/GLS3000 K50S (antibody, IgG1, name in Kabat numbering, V domains shown)", "VH": "QVQLVESGGGVVQPGRSLRLSCAASGFTFSNAWMHWVRQAPGKGLEWVAQIKAKSNNYATYYAESVKGRFTISRDDSKNSLYLQMNSLKTEDTAVYYCRYVHYGAYYGVDAWGQGTTVTVSS", "VL": "DIVMTQSPLSLPVTPGEPASISCRSSQSLVHSNRNTYLHWYQQKPGQAPRLLIYSVSNRFSGVPDRFSGSGSGTDFTLKISRVEAEDVGVYYCGQGTQVPYTFGQGTKLEIK", "notes": "one-arm IgG1"}, "B2": {"name": "CE115HA000/GLS3000 L27bM (antibody, IgG1, name in Kabat numbering, V domains shown)", "VH": "B1 VH", "VL": "B1 VL with L29M, S55K", "notes": "one-arm IgG1"}, "B3": {"name": "CE115HA000/GLS3000 N28A (antibody, IgG1, name in Kabat numbering, V domains shown)", "VH": "B1 VH", "VL": "B1 VL with N33A, S55K", "notes": "one-arm IgG1"}, "B4": {"name": "CE115HA000/GLS3000 L27bE (antibody, IgG1, name in Kabat numbering, V domains shown)", "VH": "B1 VH", "VL": "B1 VL with L29E, S55K", "notes": "one-arm IgG1"}, "B5": {"name": "CE115HA000/GLS3000 N28I (antibody, IgG1, name in Kabat numbering, V domains shown)", "VH": "B1 VH", "VL": "B1 VL with N33I, S55K", "notes": "one-arm IgG1"}, "B6": {"name": "CE115HA000/GLS3000 L33I (antibody, IgG1, name in Kabat numbering, V domains shown)", "VH": "B1 VH", "VL": "B1 VL with L38I, S55K", "notes": "one-arm IgG1"}, "B7": {"name": "CE115HA000/GLS3000 L27bP (antibody, IgG1, name in Kabat numbering, V domains shown)", "VH": "B1 VH", "VL": "B1 VL with L29P, S55K", "notes": "one-arm IgG1"}, "B8": {"name": "CE115HA000/GLS3000 L33D (antibody, IgG1, name in Kabat numbering, V domains shown)", "VH": "B1 VH", "VL": "B1 VL with L38D, S55K", "notes": "one-arm IgG1"}, "B9": {"name": "CE115HA000/GLS3000 K74T (antibody, IgG1, name in Kabat numbering, V domains shown)", "VH": "B1 VH", "VL": "B1 VL with S55K, K79T", "notes": "one-arm IgG1"}, "B10": {"name": "CE115HA000/GLS3000 L27bV (antibody, IgG1, name in Kabat numbering, V domains shown)", "VH": "B1 VH", "VL": "B1 VL with L29V, S55K", "notes": "one-arm IgG1"}, "B11": {"name": "CE115HA000/GLS3000 N28L (antibody, IgG1, name in Kabat numbering, V domains shown)", "VH": "B1 VH", "VL": "B1 VL with N33L, S55K", "notes": "one-arm IgG1"}, "B12": {"name": "CE115HA000/GLS3000 L27bD (antibody, IgG1, name in Kabat numbering, V domains shown)", "VH": "B1 VH", "VL": "B1 VL with L29D, S55K", "notes": "one-arm IgG1"}, "B13": {"name": "CE115HA000/GLS3000 N28K (antibody, IgG1, name in Kabat numbering, V domains shown)", "VH": "B1 VH", "VL": "B1 VL with N33K, S55K", "notes": "one-arm IgG1"}, "B14": {"name": "CE115HA000/GLS3000 N28E (antibody, IgG1, name in Kabat numbering, V domains shown)", "VH": "B1 VH", "VL": "B1 VL with N33E, S55K", "notes": "one-arm IgG1"}, "B15": {"name": "CE115HA000/GLS3000 K50Y (antibody, IgG1, name in Kabat numbering, V domains shown)", "VH": "B1 VH", "VL": "B1 VL with S55Y", "notes": "one-arm IgG1"}, "B16": {"name": "CE115HA000/GLS3000 N28H (antibody, IgG1, name in Kabat numbering, V domains shown)", "VH": "B1 VH", "VL": "B1 VL with N33H, S55K", "notes": "one-arm IgG1"}, "B17": {"name": "CE115HA000/GLS3000 L33M (antibody, IgG1, name in Kabat numbering, V domains shown)", "VH": "B1 VH", "VL": "B1 VL with L38M, S55K", "notes": "one-arm IgG1"}, "B18": {"name": "CE115HA000/GLS3000 K107E (antibody, IgG1, name in Kabat numbering, V domains shown)", "VH": "B1 VH", "VL": "B1 VL with S55K, K112E", "notes": "one-arm IgG1"}, "B19": {"name": "CE115HA000/GLS3000 L27bI (antibody, IgG1, name in Kabat numbering, V domains shown)", "VH": "B1 VH", "VL": "B1 VL with L29I, S55K", "notes": "one-arm IgG1"}, "B20": {"name": "CE115HA000/GLS3000 L33P (antibody, IgG1, name in Kabat numbering, V domains shown)", "VH": "B1 VH", "VL": "B1 VL with L38P, S55K", "notes": "one-arm IgG1"}, "B21": {"name": "CE115HA000/GLS3000 L27bY (antibody, IgG1, name in Kabat numbering, V domains shown)", "VH": "B1 VH", "VL": "B1 VL with L29Y, S55K", "notes": "one-arm IgG1"}, "B22": {"name": "CE115HA000/GLS3000 N28G (antibody, IgG1, name in Kabat numbering, V domains shown)", "VH": "B1 VH", "VL": "B1 VL with N33G, S55K", "notes": "one-arm IgG1"}, "B23": {"name": "CE115HA000/GLS3000 L33E (antibody, IgG1, name in Kabat numbering, V domains shown)", "VH": "B1 VH", "VL": "B1 VL with L38E, S55K", "notes": "one-arm IgG1"}, "B24": {"name": "CE115HA000/GLS3000 L33V (antibody, IgG1, name in Kabat numbering, V domains shown)", "VH": "B1 VH", "VL": "B1 VL with L38V, S55K", "notes": "one-arm IgG1"}, "B25": {"name": "CE115HA000/GLS3000 N28F (antibody, IgG1, name in Kabat numbering, V domains shown)", "VH": "B1 VH", "VL": "B1 VL with N33F, S55K", "notes": "one-arm IgG1"}, "B26": {"name": "CE115HA000/GLS3000 L33A (antibody, IgG1, name in Kabat numbering, V domains shown)", "VH": "B1 VH", "VL": "B1 VL with L38A, S55K", "notes": "one-arm IgG1"}, "B27": {"name": "CE115HA000/GLS3000 L33F (antibody, IgG1, name in Kabat numbering, V domains shown)", "VH": "B1 VH", "VL": "B1 VL with L38F, S55K", "notes": "one-arm IgG1"}, "B28": {"name": "CE115HA000/GLS3000 K50T (antibody, IgG1, name in Kabat numbering, V domains shown)", "VH": "B1 VH", "VL": "B1 VL with S55T", "notes": "one-arm IgG1"}, "B29": {"name": "CE115HA000/GLS3000 L27bW (antibody, IgG1, name in Kabat numbering, V domains shown)", "VH": "B1 VH", "VL": "B1 VL with L29W, S55K", "notes": "one-arm IgG1"}, "B30": {"name": "CE115HA000/GLS3000 L27bF (antibody, IgG1, name in Kabat numbering, V domains shown)", "VH": "B1 VH", "VL": "B1 VL with L29F, S55K", "notes": "one-arm IgG1"}, "B31": {"name": "CE115HA000/GLS3000 L27bS (antibody, IgG1, name in Kabat numbering, V domains shown)", "VH": "B1 VH", "VL": "B1 VL with L29S, S55K", "notes": "one-arm IgG1"}}, "note": "Numbering of substitutions follows the chain as printed.", "data": [{"biological_target": "T1, CD3 epsilon homodimer protein (UniProt P07766 23-126)", "T1 construct": "also called CD3 (CD3 epsilon)", "T1 sequence (P07766 23-126)": "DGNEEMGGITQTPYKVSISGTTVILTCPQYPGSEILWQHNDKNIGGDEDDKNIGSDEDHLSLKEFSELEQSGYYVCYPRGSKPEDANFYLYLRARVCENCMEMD", "experiment": "SPR, antibody over immobilised CD3e homodimer;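 note: SPR at 25 °C with CD3 epsilon homodimer amine-coupled to a CM4 sensor chip and antibody flowed over as analyte in HBS-EP+ running buffer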", "values": [{"binder": "B1", "KD ratio to GLS3000": 45.3}, {"binder": "B2", "KD ratio to GLS3000": 1.31}, {"binder": "B3", "KD ratio to GLS3000": 4.18}, {"binder": "B4", "KD ratio to GLS3000": 28.8}, {"binder": "B5", "KD ratio to GLS3000": 2.81}, {"binder": "B6", "KD ratio to GLS3000": 0.86}, {"binder": "B7", "KD ratio to GLS3000": 0.96}, {"binder": "B8", "KD ratio to GLS3000": 37.5}, {"binder": "B9", "KD ratio to GLS3000": 0.85}, {"binder": "B10", "KD ratio to GLS3000": 1.11}, {"binder": "B11", "KD ratio to GLS3000": 3.34}, {"binder": "B12", "KD ratio to GLS3000": 25.1}, {"binder": "B13", "KD ratio to GLS3000": 2.34}, {"binder": "B14", "KD ratio to GLS3000": 5.47}, {"binder": "B15", "KD ratio to GLS3000": 195}, {"binder": "B16", "KD ratio to GLS3000": 3}, {"binder": "B17", "KD ratio to GLS3000": 0.9}, {"binder": "B18", "KD ratio to GLS3000": 0.95}, {"binder": "B19", "KD ratio to GLS3000": 1.17}, {"binder": "B20", "KD ratio to GLS3000": 32.9}, {"binder": "B21", "KD ratio to GLS3000": 22.2}, {"binder": "B22", "KD ratio to GLS3000": 2.41}, {"binder": "B23", "KD ratio to GLS3000": 0.83}, {"binder": "B24", "KD ratio to GLS3000": 1.26}, {"binder": "B25", "KD ratio to GLS3000": 2.59}, {"binder": "B26", "KD ratio to GLS3000": 0.82}, {"binder": "B27", "KD ratio to GLS3000": 0.65}, {"binder": "B28", "KD ratio to GLS3000": 25.1}, {"binder": "B29", "KD ratio to GLS3000": 23.6}, {"binder": "B30", "KD ratio to GLS3000": 2.67}, {"binder": "B31", "KD ratio to GLS3000": 0.9}]}]}
